Source: patent US20090291890A1 (published 2009)
Where a chain is given by its changes, count along the chain named. Names and notes keep the numbering of the source. Blank lines part the entries; values can stand above or below the binder they belong to.

Target: Factor X (FX) (Homo sapiens (Human)) (UniProt P00742)
Sequence (P00742 41-488 limits assumed): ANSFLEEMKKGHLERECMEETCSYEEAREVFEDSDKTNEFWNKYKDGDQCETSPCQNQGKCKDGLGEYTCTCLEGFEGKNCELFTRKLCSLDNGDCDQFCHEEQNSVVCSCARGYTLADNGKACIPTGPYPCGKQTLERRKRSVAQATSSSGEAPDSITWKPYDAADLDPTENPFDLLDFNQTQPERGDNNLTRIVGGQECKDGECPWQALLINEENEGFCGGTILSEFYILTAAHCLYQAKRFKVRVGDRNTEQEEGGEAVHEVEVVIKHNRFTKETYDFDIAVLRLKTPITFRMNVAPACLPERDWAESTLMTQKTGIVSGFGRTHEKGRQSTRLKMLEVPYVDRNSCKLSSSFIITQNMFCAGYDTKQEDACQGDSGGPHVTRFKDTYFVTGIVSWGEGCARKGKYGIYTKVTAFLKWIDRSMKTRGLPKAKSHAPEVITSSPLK

B1: FVIIa variant S222A/Gla Swap FIX (enzyme)
chain: YNSGKLEEFVQGNLERECMEEKCSFEEAREVFENTERTTEFWKQYSDGDQCASSPCQNGGSCKDQLQSYICFCLPAFEGRNCETHKDDQLICVNENGGCEQYCSDHTGTKRSCRCHEGYSLLADGVSCTPTVEYPCGKIPILEKRNASKPQGRIVGGKVCPKGECPWQVLLLVNGAQLCGGTLINTIWVVSAAHCFDKIKNWRNLIAVLGEHDLSEHDGDEQARRVAQVIIPSTYVPGTTNHDIALLRLHQPVVLTDHVVPLCLPERTFSERTLAFVRFSLVSGWGQLLDRGATALELMVLNVPRLMTQDCLQQSRKVGDSPNITEYMFCAGYSDGSKDSCKGDSGGPHATHYRGTWYLTGIVSWGQGCATVGHFGVYTRVSQYIEWLQKLMRSEPRPGVLLRAPFP
- kcat/KM, TF-Dependent Indirect Assay: 6.55e+07 M⁻¹ s⁻¹

B2: FVIIa variant Q286R/S222A/H257A/Gla Swap FIX (enzyme)
chain: B1 chain with H258A, Q287R
- kcat/KM, TF-Dependent Indirect Assay: 7.75e+07 M⁻¹ s⁻¹

B3: FVIIa variant H257A/Gla Swap FIX (enzyme)
chain: B1 chain with A223S, H258A
- kcat/KM, TF-Dependent Indirect Assay: 6.45e+07 M⁻¹ s⁻¹

B5: FVIIa variant Q286R/S222A/Gla Swap FIX (enzyme)
chain: B1 chain with Q287R
- kcat/KM, TF-Dependent Indirect Assay: 1.61e+08 M⁻¹ s⁻¹

B6: FVIIa variant Q286R/H257A/Gla Swap FIX (enzyme)
chain: B1 chain with A223S, H258A, Q287R
- kcat/KM, TF-Dependent Indirect Assay: 8.09e+07 M⁻¹ s⁻¹

B7: FVIIa variant Q286R/Gla Swap FIX (enzyme)
chain: B1 chain with A223S, Q287R
- kcat/KM, TF-Dependent Indirect Assay: 1.11e+08 M⁻¹ s⁻¹

B8: FVIIa variant S103S111delins… (enzyme)
chain: ANAFLEELRPGSLERECKEEQCSFEEAREIFKDAERTKLFWISYSDGDQCASSPCQNGGSCKDQLQSYICFCLPAFEGRNCETHKDDQLICVNENGGCEQYCSFGRGDIRNVCRCHEGYSLLADGVSCTPTVEYPCGKIPILEKRNASKPQGRIVGGKVCPKGECPWQVLLLVNGAQLCGGTLINTIWVVSAAHCFDKIKNWRNLIAVLGEHDLSEHDGDEQSRRVAQVIIPSTYVPGTTNHDIALLRLHQPVVLTDHVVPLCLPERTFSERTLAFVRFSLVSGWGQLLDRGATALELMVLNVPRLMTQDCLQQSRKVGDSPNITEYMFCAGYSDGSKDSCKGDSGGPHATHYRGTWYLTGIVSWGQGCATVGHFGVYTRVSQYIEWLQKLMRSEPRPGVLLRAPFP
- kcat/KM, TF-Dependent Indirect Assay: 4.83e+07 M⁻¹ s⁻¹

B9: FVIIa variant P406ins… (enzyme)
chain: ANAFLEELRPGSLERECKEEQCSFEEAREIFKDAERTKLFWISYSDGDQCASSPCQNGGSCKDQLQSYICFCLPAFEGRNCETHKDDQLICVNENGGCEQYCSDHTGTKRSCRCHEGYSLLADGVSCTPTVEYPCGKIPILEKRNASKPQGRIVGGKVCPKGECPWQVLLLVNGAQLCGGTLINTIWVVSAAHCFDKIKNWRNLIAVLGEHDLSEHDGDEQSRRVAQVIIPSTYVPGTTNHDIALLRLHQPVVLTDHVVPLCLPERTFSERTLAFVRFSLVSGWGQLLDRGATALELMVLNVPRLMTQDCLQQSRKVGDSPNITEYMFCAGYSDGSKDSCKGDSGGPHATHYRGTWYLTGIVSWGQGCATVGHFGVYTRVSQYIEWLQKLMRSEPRPGVLLRAPFPCSFGRGDIRNVC
- kcat/KM, TF-Dependent Indirect Assay: 6.16e+07 M⁻¹ s⁻¹

B10: FVIIa variant A175S (enzyme)
chain: ANAFLEELRPGSLERECKEEQCSFEEAREIFKDAERTKLFWISYSDGDQCASSPCQNGGSCKDQLQSYICFCLPAFEGRNCETHKDDQLICVNENGGCEQYCSDHTGTKRSCRCHEGYSLLADGVSCTPTVEYPCGKIPILEKRNASKPQGRIVGGKVCPKGECPWQVLLLVNGSQLCGGTLINTIWVVSAAHCFDKIKNWRNLIAVLGEHDLSEHDGDEQSRRVAQVIIPSTYVPGTTNHDIALLRLHQPVVLTDHVVPLCLPERTFSERTLAFVRFSLVSGWGQLLDRGATALELMVLNVPRLMTQDCLQQSRKVGDSPNITEYMFCAGYSDGSKDSCKGDSGGPHATHYRGTWYLTGIVSWGQGCATVGHFGVYTRVSQYIEWLQKLMRSEPRPGVLLRAPFP
- kcat/KM, TF-Dependent Indirect Assay: 3.32e+07 M⁻¹ s⁻¹

B11: FVIIa variant Q286R/M298Q/K341Q (enzyme)
chain: B10 chain with S175A, Q286R, M298Q, K341Q
- kcat/KM, TF-Dependent Indirect Assay: 3.93e+07 M⁻¹ s⁻¹

B14: FVIIa variant Q286R/S222A (enzyme)
chain: B10 chain with S175A, S222A, Q286R
- kcat/KM, TF-Dependent Indirect Assay: 1.42e+08 M⁻¹ s⁻¹

B15: FVIIa variant A122N/G124S (enzyme)
chain: B10 chain with A122N, G124S, S175A
- kcat/KM, TF-Dependent Indirect Assay: 5.27e+07 M⁻¹ s⁻¹

B16: FVIIa variant S222A/H257A (enzyme)
chain: B10 chain with S175A, S222A, H257A
- kcat/KM, TF-Dependent Indirect Assay: 5.02e+07 M⁻¹ s⁻¹

B18: FVIIa variant Q286R/M298Q/K199E (enzyme)
chain: B10 chain with S175A, K199E, Q286R, M298Q
- kcat/KM, TF-Dependent Indirect Assay: 7.74e+07 M⁻¹ s⁻¹

B20: FVIIa variant A175S/Q286R/Q366V (enzyme)
chain: B10 chain with Q286R, Q366V
- kcat/KM, TF-Dependent Indirect Assay: 8.08e+07 M⁻¹ s⁻¹

B23: FVIIa variant Q286R/S222A/H257A (enzyme)
chain: B10 chain with S175A, S222A, H257A, Q286R
- kcat/KM, TF-Dependent Indirect Assay: 9.51e+07 M⁻¹ s⁻¹

B25: FVIIa variant Q286R/H257A (enzyme)
chain: B10 chain with S175A, H257A, Q286R
- kcat/KM, TF-Dependent Indirect Assay: 1.27e+08 M⁻¹ s⁻¹

B26: FVIIa variant A175S/S222A/Q366V (enzyme)
chain: B10 chain with S222A, Q366V
- kcat/KM, TF-Dependent Indirect Assay: 3.78e+07 M⁻¹ s⁻¹

B27: FVIIa variant A122N/G124S/E394N/P395A/R396S (enzyme)
chain: B10 chain with A122N, G124S, S175A, E394N, P395A, R396S
- kcat/KM, TF-Dependent Indirect Assay: 4.88e+07 M⁻¹ s⁻¹

B33: FVIIa variant P406ins… (enzyme)
chain: ANAFLEELRPGSLERECKEEQCSFEEAREIFKDAERTKLFWISYSDGDQCASSPCQNGGSCKDQLQSYICFCLPAFEGRNCETHKDDQLICVNENGGCEQYCSDHTGTKRSCRCHEGYSLLADGVSCTPTVEYPCGKIPILEKRNASKPQGRIVGGKVCPKGECPWQVLLLVNGAQLCGGTLINTIWVVSAAHCFDKIKNWRNLIAVLGEHDLSEHDGDEQSRRVAQVIIPSTYVPGTTNHDIALLRLHQPVVLTDHVVPLCLPERTFSERTLAFVRFSLVSGWGQLLDRGATALELMVLNVPRLMTQDCLQQSRKVGDSPNITEYMFCAGYSDGSKDSCKGDSGGPHATHYRGTWYLTGIVSWGQGCATVGHFGVYTRVSQYIEWLQKLMRSEPRPGVLLRAPFPGGGSCSFGRGDIRNVC
- kcat/KM, TF-Dependent Indirect Assay: 7.47e+07 M⁻¹ s⁻¹

Second part, the binder after the results:

- kcat/KM, TF-Dependent Indirect Assay: 5.77e+07 M⁻¹ s⁻¹
B4: FVIIa variant S222A/H257A/Gla Swap FIX (enzyme)
chain: B1 chain with H258A

- kcat/KM, TF-Dependent Indirect Assay: 1.27e+08 M⁻¹ s⁻¹
B12: FVIIa variant S222A/Q286R/Q366V (enzyme)
chain: B10 chain with S175A, S222A, Q286R, Q366V

- kcat/KM, TF-Dependent Indirect Assay: 3.77e+07 M⁻¹ s⁻¹
B13: FVIIa variant T239L (enzyme)
chain: B10 chain with S175A, T239L

- kcat/KM, TF-Dependent Indirect Assay: 3.5e+07 M⁻¹ s⁻¹
B17: FVIIa variant T239I (enzyme)
chain: B10 chain with S175A, T239I

- kcat/KM, TF-Dependent Indirect Assay: 1.74e+07 M⁻¹ s⁻¹
B19: FVIIa variant T239S (enzyme)
chain: B10 chain with S175A, T239S

- kcat/KM, TF-Dependent Indirect Assay: 7.75e+07 M⁻¹ s⁻¹
B21: FVIIa variant S222A/H257A/M298Q (enzyme)
chain: B10 chain with S175A, S222A, H257A, M298Q

- kcat/KM, TF-Dependent Indirect Assay: 4.48e+06 M⁻¹ s⁻¹
B22: FVIIa variant V158D/L287T/M298K (enzyme)
chain: B10 chain with V158D, S175A, L287T, M298K

- kcat/KM, TF-Dependent Indirect Assay: 9.57e+07 M⁻¹ s⁻¹
B24: FVIIa variant T239V (enzyme)
chain: B10 chain with S175A, T239V

- kcat/KM, TF-Dependent Indirect Assay: 1.74e+07 M⁻¹ s⁻¹
B28: FVIIa variant T239Q (enzyme)
chain: B10 chain with S175A, T239Q

- kcat/KM, TF-Dependent Indirect Assay: 9.9e+06 M⁻¹ s⁻¹
B29: FVIIa variant T239H (enzyme)
chain: B10 chain with S175A, T239H

- kcat/KM, TF-Dependent Indirect Assay: 4.5e+06 M⁻¹ s⁻¹
B30: FVIIa variant V158T/L287T/M298K (enzyme)
chain: B10 chain with V158T, S175A, L287T, M298K

- kcat/KM, TF-Dependent Indirect Assay: 6.35e+07 M⁻¹ s⁻¹
B31: FVIIa variant T130N/E132S (enzyme)
chain: B10 chain with T130N, E132S, S175A

- kcat/KM, TF-Dependent Indirect Assay: 2e+08 M⁻¹ s⁻¹
B32: FVIIa variant S222A/H257A/Q286R/M298Q (enzyme)
chain: B10 chain with S175A, S222A, H257A, Q286R, M298Q
